Experimental data from US7575909B2, “Oxidoreductase from pichia capsulata” (IEP GmbH, priority 2003, dated 2009).

Tests used:
[1] = Temperature stability of the oxidoreductase; type: physicochemical; settings: after 30 min
Procedure: The temperature stability was determined for the range of 15° C. to 70° C. in a manner analogous to that described under Example 5.2. […] Also in this case, the measured value obtained immediately after diluting the purified oxidoreductase in a potassium phosphate buffer 50 mM pH=7.0 was used as the initial value. Said value was set as a 100% value also in this example.

[2] = Enzyme activity on expression of the oxidoreductase in E. coli; type: biochemical, Escherichia coli
Description: Competent Escherichia coli StarBL21 (De3) cells (Invitrogen) were transformed with the expression construct pET21-PC#10 coding for the oxidoreductase according to the invention.
(§1) The transformed strain was cultivated in an LB medium (1% tryptone, 0.5% yeast extract, 1% NaCl) with ampicillin (50 ig/ml) until an optical density, measured at 500 nm, of 0.5 was reached. The production of the recombinant oxidoreductase protein was initiated by adding isopropylthiogalactoside (IPTG) at a final concentration of 1 mM. The induction batch was incubated for another 15 h at 25° C. and 220 rpm.
Competent Escherichia coli RB791 cells were transformed with the expression construct pQE30-PC#12 coding for the oxidoreductase according to the invention.
as §1, with “adding IPTG” for “adding isopropylthiogalactoside (IPTG)”, “of 0.1” for “of 1”, “15 hours” for “15 h”, “rpm. The enzyme activity achieved amounted to approx. 1000 U/g of wet cell mass.” for “rpm.”

[3] = Temperature optimum of the oxidoreductase; type: biochemical
Procedure: In order to determine the optimum test temperature, the enzyme activity was measured in the standard measuring batch in a temperature range of 15° C. to 70° C.

[4] = Solvent stability of the oxidoreductase; type: physicochemical; settings: RT
Procedure: The enzyme stability of the oxidoreductase from P. capsulata was examined in the presence of organic solvents. For this purpose, the oxidoreductase was in each case diluted 1:20 with the indicated solvent mixtures (in case of water-miscible organic solvents) and was incubated at room temperature (20° C. to 24° C.; RT). Subsequently, 10 μl of the enzyme solution were used in the standard test batch. Also in this case, the initial value was equalled to 100% after dilution in the buffer (potassium phosphate buffer (KPP) 100 mM, pH=7.0), and all the other values were set in relation to said initial value.
In case of water-immiscible organic solvents, the dilution likewise took place in a potassium phosphate buffer, the same volume of an organic solvent was added to the batch and the batch was incubated at RT in a thermomixer at 170 rpm. The activity was measured from the aqueous phase.

[5] = pH stability of the recombinant oxidoreductase; type: physicochemical; settings: pH values above 9.0 and below 5.0
Procedure: The determination of the activity of the recombinant oxidoreductase was examined by storage in the buffer systems mentioned in Table 3. For this purpose, the various buffers (50 mM) were prepared in a pH range of 4 to 11, and the oxidoreductase produced according to Example 4 was diluted therewith. After 30, 60 and 300 min of incubation, 10 μl were removed from the batch and used in the activity test according to Example 1.
Thereby, the initial value is the measured value which was obtained immediately after diluting (1:20) the enzyme in the potassium phosphate buffer 50 mM pH=7.0. Under the given conditions, said value corresponded to an extinction variation of approx. 0.70/min and was set as a 100% value, and all the following measured values were set in relation to said value.

B1: oxidoreductase from Pichia capsulata: NADH-dependent (S)-specific zinc-dependent carbonyl reductase from Pichia capsulata, amino acid sequence SEQ ID NO: 9, 341 amino acids (protein, listed as Pichia capsulata)
chain: MSALSKTQAGYIFKKGAGHIVKAEVPIPKPTGAQSLLRVKAAGMCHSDLHVIGETLEVPTDGYVLGHEIAGELVEIGDSVNPEVFKVGGRYAVHGLNSCGSCEMCRTGHDNDCTGNESKWYGLGISGGYQQYLLVPNSHHLLPIPDNVSYEVAAATSDAVLTPYHAIKNSGVTPSSKVLMFGLGGLGSNALQILKAFGAYVVAVDVKPASKAIADEFKADEFYTDISQSSWKPASFDYCFDFVSLQVTFDICQKYIKSHGTIFPVGLGSSKLTFDLGNLALREVKIVGNFWGTSQEQIEAMELVSSGRVKPQVHTTELENLPESLEKLEEGKINGRLVMLP
With B1 as the molecule, how does the “enzyme activity after incubation at 55° C.” value [1] read?
Its value is “can no longer be detected”.

And the enzyme activity achieved ([2]; E. coli RB791, construct pQE30-PC#12, 0.1 mM IPTG)?
The enzyme activity achieved was “approx. 1000 U/g of wet cell mass”.

And the enzyme activity achieved ([2]; E. coli StarBL21 (De3), construct pET21-PC#10, 1 mM IPTG)?
Its enzyme activity achieved is “approx. 6000 U/g of wet cell mass”.

And the “Activity in U/ml undiluted enzyme” value ([3]; 15 ° C.)?
The value was 73 U/ml.

And the “Activity in U/ml undiluted enzyme” value ([3]; 20 ° C.)?
The value was 83 U/ml.

What about the “Activity in U/ml undiluted enzyme” value ([3]; 25 ° C.) of the same molecule?
The value was 128 U/ml.

What about the “Activity in U/ml undiluted enzyme” value ([3]; 30 ° C.) of the same molecule?
The value was 135 U/ml.

What about the “Activity in U/ml undiluted enzyme” value ([3]; 35 ° C.) of the same molecule?
Its value is 163 U/ml.

And the “Activity in U/ml undiluted enzyme” value ([3]; 40 ° C.)?
Its value is 170 U/ml.

What about the “Activity in U/ml undiluted enzyme” value ([3]; 45 ° C.) of the same molecule?
The value was 176 U/ml.

And the “Activity in U/ml undiluted enzyme” value ([3]; 50 ° C.)?
Its value is 122 U/ml.

What about the “Activity in U/ml undiluted enzyme” value ([3]; 55 ° C.) of the same molecule?
The value was 45 U/ml.

What about the “Activity in U/ml undiluted enzyme” value ([3]; 60 ° C.) of the same molecule?
The value was 0 U/ml.

What about the “Activity in U/ml undiluted enzyme” value ([3]; 65 ° C.) of the same molecule?
The value was 0 U/ml.

And the “Activity in U/ml undiluted enzyme” value ([3]; 70 ° C.)?
The value was 0 U/ml.

What about the “optimum temperature (maximum activity)” value ([3]; standard measuring batch, 15° C. to 70° C., listed as recombinant oxidoreductase from P. capsulata) of the same molecule?
The value was 45 °C.

What about the Activity ([4]; 5% EtOH, 8 h) of the same molecule?
Its Activity is 77%.

And the Activity ([4]; 5% EtOH, 24 h)?
Its Activity is 77%.

What about the Activity ([4]; 5% isopropanol, 8 h) of the same molecule?
The Activity was 77%.

What about the Activity ([4]; 5% isopropanol, 24 h) of the same molecule?
The Activity was 77%.

What about the Activity ([4]; 10% DSMO, 8 h) of the same molecule?
The Activity was 42%.

What about the Activity ([4]; 10% DSMO, 24 h) of the same molecule?
Its Activity is 45%.

What about the Activity ([4]; 10% EtOH, 8 h) of the same molecule?
Its Activity is 77%.

What about the Activity ([4]; 10% EtOH, 24 h) of the same molecule?
The Activity was 77%.

And the Activity ([4]; 10% isopropanol, 8 h)?
The Activity was 72%.

And the Activity ([4]; 10% isopropanol, 24 h)?
The Activity was 72%.

What about the Activity ([4]; 20% DSMO, 8 h) of the same molecule?
Its Activity is 30%.

What about the Activity ([4]; 20% DSMO, 24 h) of the same molecule?
The Activity was 30%.

What about the Activity ([4]; 20% EtOH, 8 h) of the same molecule?
The Activity was 100%.

What about the Activity ([4]; 20% EtOH, 24 h) of the same molecule?
The Activity was 100%.

What about the Activity ([4]; 20% isopropanol, 8 h) of the same molecule?
The Activity was 46%.

And the Activity ([4]; 20% isopropanol, 24 h)?
The Activity was 46%.

What about the Activity ([4]; 30% EtOH, 8 h) of the same molecule?
Its Activity is 64%.

What about the Activity ([4]; 30% EtOH, 24 h) of the same molecule?
The Activity was 64%.

And the Activity ([4]; 30% isopropanol, 8 h)?
The Activity was 18%.

What about the Activity ([4]; 30% isopropanol, 24 h) of the same molecule?
Its Activity is 18%.

And the Activity ([4]; Buffer KPP 100 mM pH = 7, 1 mM MgCl2, 8 h)?
The Activity was 100%.

And the Activity ([4]; Buffer KPP 100 mM pH = 7, 1 mM MgCl2, 24 h)?
Its Activity is 100%.

What about the Activity ([4]; butyl acetate (same volume, two-phase), 8 h) of the same molecule?
Its Activity is 53%.

What about the Activity ([4]; butyl acetate (same volume, two-phase), 24 h) of the same molecule?
Its Activity is 28%.

What about the Activity ([4]; chloroform (same volume, two-phase), 8 h) of the same molecule?
Its Activity is 51%.

And the Activity ([4]; chloroform (same volume, two-phase), 24 h)?
The Activity was 0%.

What about the Activity ([4]; cyclohexane (same volume, two-phase), 8 h) of the same molecule?
The Activity was 85%.

What about the Activity ([4]; cyclohexane (same volume, two-phase), 24 h) of the same molecule?
The Activity was 70%.

And the Activity ([4]; diethyl ether (same volume, two-phase), 8 h)?
The Activity was 100%.

And the Activity ([4]; diethyl ether (same volume, two-phase), 24 h)?
Its Activity is 100%.

What about the Activity ([4]; diisopropyl ether (same volume, two-phase), 8 h) of the same molecule?
Its Activity is 100%.

What about the Activity ([4]; diisopropyl ether (same volume, two-phase), 24 h) of the same molecule?
The Activity was 100%.

What about the Activity ([4]; ethyl acetate (same volume, two-phase), 8 h) of the same molecule?
The Activity was 2%.

What about the Activity ([4]; ethyl acetate (same volume, two-phase), 24 h) of the same molecule?
Its Activity is 0%.

And the Activity ([4]; heptane (same volume, two-phase), 8 h)?
Its Activity is 74%.

What about the Activity ([4]; heptane (same volume, two-phase), 24 h) of the same molecule?
The Activity was 43%.

And the Activity ([4]; hexane (same volume, two-phase), 8 h)?
Its Activity is 60%.

What about the Activity ([4]; hexane (same volume, two-phase), 24 h) of the same molecule?
The Activity was 20%.

And the Activity ([4]; methyl tert-butyl ether (same volume, two-phase), 8 h)?
The Activity was 100%.

What about the Activity ([4]; methyl tert-butyl ether (same volume, two-phase), 24 h) of the same molecule?
Its Activity is 100%.

And the “effect of incubation at extreme pH” value [5]?
Its value is “immediate deactivation”.
